B1: Q126T, SQVLKA (ligand)
chain: APTSSSTKKTQLQLSQLLVLLKAILNGINNYKNPKLTRMLTFKFYMPKKATELKHLQCLEEELKPLEEVLNLAQSKNFHLRPRDLISNINVIVLELKGSETTFMCEYADETATIVEFLNRWITFCTSIISTLT
B2: L18E, SQVLKA (ligand)
chain: APTSSSTKKTQLQLSQLEVLLKAILNGINNYKNPKLTRMLTFKFYMPKKATELKHLQCLEEELKPLEEVLNLAQSKNFHLRPRDLISNINVIVLELKGSETTFMCEYADETATIVEFLNRWITFCQSIISTLT
B3: T3C, SQVLKA (ligand)
chain: APCSSSTKKTQLQLSQLLVLLKAILNGINNYKNPKLTRMLTFKFYMPKKATELKHLQCLEEELKPLEEVLNLAQSKNFHLRPRDLISNINVIVLELKGSETTFMCEYADETATIVEFLNRWITFCQSIISTLT
B4: L18F, SQVLKA (ligand)
chain: APTSSSTKKTQLQLSQLFVLLKAILNGINNYKNPKLTRMLTFKFYMPKKATELKHLQCLEEELKPLEEVLNLAQSKNFHLRPRDLISNINVIVLELKGSETTFMCEYADETATIVEFLNRWITFCQSIISTLT
B5: KQVLKA (ligand)
chain: APTSSSTKKTQLQLKQLLVLLKAILNGINNYKNPKLTRMLTFKFYMPKKATELKHLQCLEEELKPLEEVLNLAQSKNFHLRPRDLISNINVIVLELKGSETTFMCEYADETATIVEFLNRWITFCQSIISTLT
B6: L18K, SQVLKA (ligand)
chain: APTSSSTKKTQLQLSQLKVLLKAILNGINNYKNPKLTRMLTFKFYMPKKATELKHLQCLEEELKPLEEVLNLAQSKNFHLRPRDLISNINVIVLELKGSETTFMCEYADETATIVEFLNRWITFCQSIISTLT

What was measured:
[1] = biological target: T1, orthogonal hCD122 receptor (hoRb), hCD122 with H133D and Y134F (human, UniProt P14784 27-550); test: cell-based or functional assay
T1 sequence: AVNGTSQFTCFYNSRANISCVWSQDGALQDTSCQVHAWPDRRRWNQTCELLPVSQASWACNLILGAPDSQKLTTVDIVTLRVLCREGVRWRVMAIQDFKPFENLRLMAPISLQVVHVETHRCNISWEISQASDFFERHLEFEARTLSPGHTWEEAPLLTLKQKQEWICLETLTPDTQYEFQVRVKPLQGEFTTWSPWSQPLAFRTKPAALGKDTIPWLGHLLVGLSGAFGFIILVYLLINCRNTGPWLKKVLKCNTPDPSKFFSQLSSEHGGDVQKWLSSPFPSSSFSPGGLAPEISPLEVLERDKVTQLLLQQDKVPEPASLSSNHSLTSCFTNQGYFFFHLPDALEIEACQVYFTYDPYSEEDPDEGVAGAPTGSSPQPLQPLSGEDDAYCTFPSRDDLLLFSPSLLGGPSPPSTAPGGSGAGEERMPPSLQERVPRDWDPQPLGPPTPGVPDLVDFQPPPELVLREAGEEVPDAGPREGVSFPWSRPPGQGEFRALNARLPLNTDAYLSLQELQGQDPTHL

[2] = biological target: T1, orthogonal hCD122 receptor (hoRb), …; test: cell-based or functional assay; remark: listed apart in the source
Wherever Relative Proliferation Fold Change 3F8 1:10 is given: reference of the scale not given here.
Wherever Relative Proliferation Fold Change 3F8 1:2 is given: reference of the scale not given here.
Wherever Relative Proliferation Fold Change 3F8 1:50 is given: reference of the scale not given here.
Wherever Relative Proliferation Fold Change NKL 1:10 is given: reference of the scale not given here.
Wherever Relative Proliferation Fold Change NKL 1:2 is given: reference of the scale not given here.
Wherever Relative Proliferation Fold Change NKL 1:50 is given: reference of the scale not given here.

Binder	3F8 Ortho Proliferation Signal 1:2 [1] [cts/min]	3F8 Ortho Proliferation Signal 1:10 [1] [cts/min]	3F8 Ortho Proliferation Signal 1:50 [1] [cts/min]	Relative Proliferation Fold Change 3F8 1:2 [1] [fold]	Relative Proliferation Fold Change 3F8 1:10 [1] [fold]	Relative Proliferation Fold Change 3F8 1:50 [1] [fold]	NKL Ortho Proliferation Signal 1:2 [2]	NKL Ortho Proliferation Signal 1:10 [2]	NKL Ortho Proliferation Signal 1:50 [2]	Relative Proliferation Fold Change NKL 1:2 [2] [fold]	Relative Proliferation Fold Change NKL 1:10 [2] [fold]	Relative Proliferation Fold Change NKL 1:50 [2] [fold]
B1	3380	1880	1320	0.28	0.54	1.92	5980	6750	5180	0.44	0.47	0.41
B2	6090	2350	1980	9.99	0.93	0.77	8260	9060	8120	0.57	0.56	0.51
B3	33100	33700	14600	34.9	12.8	12	60600	70800	35300	4.54	4.16	2.06
B4	49800	40800	30000	54.8	16.8	11.8	48600	39400	19400	3.85	2.52	1.3
B5	35200	36800	24000	4.86	3.88	23	71200	67600	38900	5.12	4.36	2.63
B6	45400	42800	20400	162	49.6	14.6	22200	20200	11500	1.56	1.21	0.76

From patent publication US20210196796A1 (SYNTHEKINE, published 2021)
